For the experiment, the target named is LH1–RC core complex, monomeric component of the native dimer (Rhodobacter sphaeroides f. sp. denitrificans strain IL106 (endogenous)) (UniProt Q3J1A4). In words: cryo-EM structure; native dimeric LH1–RC from Rba. sphaeroides IL106 in DDM, ~5 mg/ml; C1 symmetry, 2.75 Å.

As a reminder, the stoichiometry N is the number of molecules, sites or subunits per partner or assembly.

Substance “LH1–RC core complex, monomeric component of the native dimer (from UniProt Q3J1A4 1-58; Q3J1A3 1-49; P0C0Y8 1-282; P0C0Y9 1-308; P0C0Y7 1-260; P13402 1-82)” gave a stoichiometry N of 2.

For the origin of these results see publication PMC8991256.
